Test results as given in article PMC6044281, “Cooperative Domain Formation by Homologous Motifs in HOIL-1L and SHARPIN Plays A Crucial Role in LUBAC Stabilization” (Cell reports, 2018).

B1: mSHARPIN_(163–301) [mouse] / GST-mHOIP_(466–630) [mouse] (parent complex)
chain 1: SSGNFKKEELATRLSQAIAGGDEKAAAQVAAVLAQHHVALNVQLMEAWFPPGPIRLQVTVEDATSVLSSSSSAHVSLKIHPHCSIAALQDQVFSEFGFPPAVQRWVIGRCLCMPERSLASYGVSQDGDPAFLYLLSAPR
chain 2: SCGDPEKQRQDKMRKEGLQLVSMIQEGETAGASPEEVFSALQYSGTEVPLQWLRSELSYVLEMVAELAGQQDPELGAFSCQEARKAWLDRHGNLDEAVEECVRARRRKVHELQSLGFGPKEGSLQALFQHGGDVARALTELQRQRLEPFHQRLWDRDPEPTPCWD
B2: mHOIL-1L_(1–140) [mouse] / GST-mHOIP_(466–630) [mouse] (parent complex)
chain 1: MDEKTKKAEEMALSLARAVAGGDEQAAIKYATWLAEQRVPLRVQVKPEVSPTQDIRLCVSVEDAYMHTVTIWLTVRPDMTVASLKDMVFLDYGFPPSLQQWVVGQRLARDQETLHSHGIRRNGDGAYLYLLSARNTSLNP
chain 2: B1 chain 2
B3: MBP-mSHARPIN UBL_(163–301) [mouse] / mHOIL-1L_(1–189)-strep [mouse] (parent complex)
chain 1: B1 chain 1
chain 2: MDEKTKKAEEMALSLARAVAGGDEQAAIKYATWLAEQRVPLRVQVKPEVSPTQDIRLCVSVEDAYMHTVTIWLTVRPDMTVASLKDMVFLDYGFPPSLQQWVVGQRLARDQETLHSHGIRRNGDGAYLYLLSARNTSLNPQELQRQRQLRMLEDLGFKDLTLQSRGPLEPVLPKPRTNQEPGQPDAAPE
B4: mHOIL-1L_(1–140) and mSHARPIN_(163–301) applied together [mouse] / GST-mHOIP_(466–630) [mouse] (parent complex)
chain 1: B2 chain 1
chain 2: B1 chain 1
chain 3: B1 chain 2

Variants of: B1
Assay: SPR; response read at end of injection (about 180 s); GST-mHOIP D-UBA UBA2mut immobilized with anti-GST antibody; read off a plot

response [RU]	Variant
~5	chain 2 SCGDPEKQRQDKMRKEGLQLVSMIQEGETAGASPEEVFSALQYSGTEVPLQWLRSELSYVLEMVAELAGQQDPELGAFSCQEARKAWLDRHGNLDEAVEECVRARRRKVHELQSLGFGPKEGSLQALFQHGGDVARALTELARQRAEPAHQRLWDRDPEPTPCWD [chain 2 Q142A, chain 2 L146A, chain 2 F149A]

Variants of: B1
Assay: SPR; response read at end of injection (about 180 s); GST-mHOIP D-UBA UBA1mut immobilized with anti-GST antibody; read off a plot

response [RU]	Variant
~0	chain 2 SCGDPEKQAQDKMRKEGAQLASMIQEGETAGASPEEVFSALQYSGTEVPLQWLRSELSYVLEMVAELAGQQDPELGAFSCQEARKAWLDRHGNLDEAVEECVRARRRKVHELQSLGFGPKEGSLQALFQHGGDVARALTELQRQRLEPFHQRLWDRDPEPTPCWD [chain 2 R9A, chain 2 L18A, chain 2 V21A]

Variants of: B2
Assay: SPR; response read at end of injection (about 180 s); GST-mHOIP D-UBA UBA2mut immobilized with anti-GST antibody; read off a plot

response [RU]	Variant
~-3	chain 2 SCGDPEKQRQDKMRKEGLQLVSMIQEGETAGASPEEVFSALQYSGTEVPLQWLRSELSYVLEMVAELAGQQDPELGAFSCQEARKAWLDRHGNLDEAVEECVRARRRKVHELQSLGFGPKEGSLQALFQHGGDVARALTELARQRAEPAHQRLWDRDPEPTPCWD [chain 2 Q142A, chain 2 L146A, chain 2 F149A]

Variants of: B2
Assay: SPR; response read at end of injection (about 180 s); GST-mHOIP D-UBA UBA1mut immobilized with anti-GST antibody; read off a plot

response [RU]	Variant
~60	chain 2 SCGDPEKQAQDKMRKEGAQLASMIQEGETAGASPEEVFSALQYSGTEVPLQWLRSELSYVLEMVAELAGQQDPELGAFSCQEARKAWLDRHGNLDEAVEECVRARRRKVHELQSLGFGPKEGSLQALFQHGGDVARALTELQRQRLEPFHQRLWDRDPEPTPCWD [chain 2 R9A, chain 2 L18A, chain 2 V21A]

Variants of: B3
Assay: SPR; analyte 40 mM as printed in the legend; response read at end of injection (about 175 s); mHOIL-1L1-189-strep immobilized with anti-strep antibody; parent: 45; read off a plot

response [RU]	Variant
~3	chain 1 SSGNFKKEELATRASQAAAGGDEKAAAQVAAVLAQHHVALNVQLMEAWFPPGPIRLQVTVEDATSVLSSSSSAHVSLKIHPHCSIAALQDQVFSEFGFPPAVQRWVIGRCLCMPERSLASYGVSQDGDPAFLYLLSAPR [chain 1 L14A, chain 1 I18A]

Variants of: B4
Assay: SPR; response read at end of injection (about 180 s); GST-mHOIP D-UBA UBA2mut immobilized with anti-GST antibody; read off a plot

response [RU]	Variant
~120	chain 3 SCGDPEKQRQDKMRKEGLQLVSMIQEGETAGASPEEVFSALQYSGTEVPLQWLRSELSYVLEMVAELAGQQDPELGAFSCQEARKAWLDRHGNLDEAVEECVRARRRKVHELQSLGFGPKEGSLQALFQHGGDVARALTELARQRAEPAHQRLWDRDPEPTPCWD [chain 3 Q142A, chain 3 L146A, chain 3 F149A]

Variants of: B4
Assay: SPR; response read at end of injection (about 180 s); GST-mHOIP D-UBA UBA1mut immobilized with anti-GST antibody; read off a plot

response [RU]	Variant
~170	chain 3 SCGDPEKQAQDKMRKEGAQLASMIQEGETAGASPEEVFSALQYSGTEVPLQWLRSELSYVLEMVAELAGQQDPELGAFSCQEARKAWLDRHGNLDEAVEECVRARRRKVHELQSLGFGPKEGSLQALFQHGGDVARALTELQRQRLEPFHQRLWDRDPEPTPCWD [chain 3 R9A, chain 3 L18A, chain 3 V21A]
